Reference: PMC1976466 (Nucleic Acids Research, 2007)
Blank lines part the entries; values can stand above or below the binder they belong to.

What was measured:
human topoisomerase IIα = human topoisomerase IIα (human, UniProt P11388 1-1531); experiment: pull-down
[1] = target: DNA topoisomerase II alpha (Homo sapiens, UniProt P11388 1-1531); experiment: EMSA
DNA topoisomerase II alpha, sequence (P11388 whole entry): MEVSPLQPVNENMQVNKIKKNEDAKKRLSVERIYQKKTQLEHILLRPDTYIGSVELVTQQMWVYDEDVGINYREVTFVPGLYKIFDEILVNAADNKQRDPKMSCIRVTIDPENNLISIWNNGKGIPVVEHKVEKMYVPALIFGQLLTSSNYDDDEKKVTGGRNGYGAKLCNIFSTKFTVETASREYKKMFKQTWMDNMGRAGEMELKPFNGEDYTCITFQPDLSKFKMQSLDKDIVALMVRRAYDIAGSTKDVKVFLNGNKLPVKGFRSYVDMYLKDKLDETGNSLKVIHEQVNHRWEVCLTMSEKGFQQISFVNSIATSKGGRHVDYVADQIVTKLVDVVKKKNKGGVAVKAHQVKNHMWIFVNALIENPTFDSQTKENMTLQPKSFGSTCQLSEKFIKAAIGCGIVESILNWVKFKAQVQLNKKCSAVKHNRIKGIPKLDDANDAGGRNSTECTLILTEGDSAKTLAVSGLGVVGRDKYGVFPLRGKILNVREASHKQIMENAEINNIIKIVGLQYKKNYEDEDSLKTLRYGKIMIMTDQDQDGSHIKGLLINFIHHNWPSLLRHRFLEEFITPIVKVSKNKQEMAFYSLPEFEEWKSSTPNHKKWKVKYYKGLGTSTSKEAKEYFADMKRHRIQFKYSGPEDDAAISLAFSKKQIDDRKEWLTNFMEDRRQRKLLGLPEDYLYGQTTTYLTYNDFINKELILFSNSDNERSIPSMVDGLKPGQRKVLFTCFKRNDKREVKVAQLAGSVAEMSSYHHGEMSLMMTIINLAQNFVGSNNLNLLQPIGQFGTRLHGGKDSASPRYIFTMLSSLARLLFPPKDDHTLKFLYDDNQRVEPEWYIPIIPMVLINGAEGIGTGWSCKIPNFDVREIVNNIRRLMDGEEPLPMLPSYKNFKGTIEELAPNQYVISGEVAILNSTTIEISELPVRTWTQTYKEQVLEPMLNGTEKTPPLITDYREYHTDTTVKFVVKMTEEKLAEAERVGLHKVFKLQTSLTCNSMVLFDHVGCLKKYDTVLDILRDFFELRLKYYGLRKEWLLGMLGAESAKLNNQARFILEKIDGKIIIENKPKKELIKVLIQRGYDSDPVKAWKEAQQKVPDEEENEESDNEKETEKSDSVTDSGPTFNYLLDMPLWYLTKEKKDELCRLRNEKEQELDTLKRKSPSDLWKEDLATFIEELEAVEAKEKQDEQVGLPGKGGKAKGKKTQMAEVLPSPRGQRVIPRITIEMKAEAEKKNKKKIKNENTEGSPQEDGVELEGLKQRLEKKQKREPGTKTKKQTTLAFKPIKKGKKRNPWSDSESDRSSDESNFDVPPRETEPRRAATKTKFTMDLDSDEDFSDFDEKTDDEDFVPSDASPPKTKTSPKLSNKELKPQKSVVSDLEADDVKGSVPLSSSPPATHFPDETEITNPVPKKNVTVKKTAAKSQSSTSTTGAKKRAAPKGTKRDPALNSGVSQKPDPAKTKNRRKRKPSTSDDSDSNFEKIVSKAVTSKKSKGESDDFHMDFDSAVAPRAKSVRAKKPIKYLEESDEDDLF

human topoisomerase IIα, sequence (P11388 whole entry): as above

binding result (human topoisomerase IIα): binds
B2: GST-HMGB1-ΔC (HMGB1 di-domain A+B, residues 1-180) (domain or fragment, rat, UniProt P63159 1-180, looked up)
chain: MGKGDPKKPRGKMSSYAFFVQTCREEHKKKHPDASVNFSEFSKKCSERWKTMSAKEKGKFEDMAKADKARYEREMKTYIPPKGETKKKFKDPNAPKRPPSAFFLFCSEYRPKIKGEHPGLSIGDVAKKLGEMWNNTAADDKQPYEKKAAKLKEKYEKDIAAYRAKGKPDAAKKGVVKAEK

binding result (human topoisomerase IIα): binds
B4: GST-HMGB1 domain B (residues 85-180) (domain or fragment, rat, UniProt P63159 85-180, looked up)
chain: TKKKFKDPNAPKRPPSAFFLFCSEYRPKIKGEHPGLSIGDVAKKLGEMWNNTAADDKQPYEKKAAKLKEKYEKDIAAYRAKGKPDAAKKGVVKAEK

The remaining lines, values behind:

B1: GST-HMGB1 domain A (residues 1-88) (domain or fragment, rat, UniProt P63159 1-88, looked up)
chain: MGKGDPKKPRGKMSSYAFFVQTCREEHKKKHPDASVNFSEFSKKCSERWKTMSAKEKGKFEDMAKADKARYEREMKTYIPPKGETKKK
binding result (human topoisomerase IIα): binds

B3: 36-bp duplex oligo_1/oligo_2 (dsDNA)
DNA 1: ATGAAATCTAACAATGCGCTCATCGTCATCCTCGGC
DNA 2: GCCGAGGATGACGATGAGCGCATTGTTAGATTTCAT
binding signal [1]: ~10 fold increase in topo IIα binding vs no HMGB1 (up to)
